Assays:
Assay type in all cases: cell-based
[1] = system: NFkB binding site reporter (3x-NFkB TK.LUC) in HepG2 cells; assay: NFkB-luciferase reporter assay in IL-1β-stimulated transfected HepG2 cells; conditions: IL-1β and estradiol
Procedure: FIG. 7A is a graphic illustration of the effect of estradiol stimulation of full-length hERβ (hERβL) and truncated hERβ (hERβT) on NFkB activation in HepG2 cells. Cells were transfected with either hERβL or hERβT and co-transfected with a luciferase reporter plasmid containing three copies of an NFkB binding site (3×-NFkB TK.LUC) and a control β-galactosidase plasmid. Cells were stimulated with interleukin-1β and incubated in the absence or presence of estradiol, after which luciferase activity was measured and normalized to β-galactosidase activity. FIG. 7B is a graphic illustration of luciferase activity in cells transfected with either hERβL or hERβT and co-transfected with a luciferase reporter plasmid lacking an NFkB binding site (TK.LUC).
In a separate experiment, HepG2 cells were transfected with hERβT or […] as above, but the reporter gene consisted of three copies of an NFkB binding site upstream of the TK basal promoter. Transfected cells were incubated with or without interleukin-1β (IL-1β) to activate NFkB and/or with estradiol prior to luciferase determination.

[2] = system: ERE (ERE.TK.LUC reporter) in HepG2 cells; assay: ERE-luciferase reporter transactivation in transfected HepG2 cells; conditions: in the presence of estradiol
Procedure: FIG. 6A is a graphic illustration of the transcriptional activation capacity of full-length hERβ (hERβL) and truncated hERβ (hERβT) expressed in HepG2 cells. Cells were transfected with either hERβL or hERβT and co-transfected with a luciferase reporter plasmid containing an estrogen response element (ERE) (ERE.TK.LUC) and a control β-galactosidase plasmid. Cells were incubated in the absence or presence of estradiol, after which luciferase activity was measured and normalized to β-galactosidase activity. FIG. 6B is a graphic illustration of luciferase activity in HepG2 cells transfected with either hERβL or hERβT and co-transfected with a luciferase reporter plasmid lacking an ERE (TK.LUC)
HepG2 cells (ATCC) were transfected in parallel with either pcDNA3-hERβL or pcDNA3-hERβT using the calcium phosphate co-precipitation method. Cells were co-transfected with a reporter plasmid containing a luciferase gene preceded by either an ERE upstream of the thymidine kinase (TK) basal promoter, or the TK basal promoter alone. […] Luciferase activity was measured by a chemiluminescent method using the Promega luciferase assay system, and β-galactosidase activity was measured by Galactolight (Tropix, Inc., Bedford Mass.); luciferase activity was then normalized to β-galactosidase activity.

[3] = system: ERE-LacZ reporter (YRpE2) in S. cerevisiae strain BJ2168; assay: ERE-LacZ reporter assay in yeast; conditions: 17-β estradiol or Genistein for 3 hours
[4] = system: ERE-reporter gene in HAECT-1 cells; assay: ERE-luciferase reporter transactivation in HAECT-1 human endothelial cells; conditions: 100 nM 17-β estradiol overnight
Procedure: FIG. 8 is a graphic illustration of the transcriptional activation capacity of full-length hERβ (hERβL) and truncated hERβ (hERβT) expressed in HAECT-1 human endothelial cells. Cells were transfected with either hERβL or hERβT and co-transfected with a luciferase reporter plasmid containing an ERE (ERE.TK.LUC) or one lacking an ERE (TK.LUC). Cells were incubated in the absence or presence of estradiol, after which luciferase activity was measured. ERE TK.LUC values were normalized to TK.LUC values and are presented as mean±S.E. (n=4).
HAECT-1 cells (a clonal immortalized human aortic endothelia cell line derived by infection with Ad5 ori-SV40 ts A209) were transfected with pcDNA3hERβT or pcDNA3-hERβL and ERE-luciferase plasmids by electroporation. After 4 hours, the cells were treated overnight with or without 100 nM 17-β estradiol prior to luciferase activity measurements. […] In independent experiments, cells transfected under identical conditions were monitored for their levels of estrogen receptors using a ligand binding assay.

Molecule	attenuation of IL-1β-mediated NFkB transcriptional activation [1]	activity relative to hERβT (ERE activity) [2]	maximal level of estrogen-stimulated LacZ expression relative to hERβT-transformed cells [3] [fold]	activity in activating the ERE-reporter gene relative to hERβT [4]
hERβT: truncated human estrogen receptor-β lacking the first 45 amino acids (Clone 3) (protein, UniProt Q92731 46-530, looked up, fragment) MTFYSPAVMNYSIPSNVTNLEGGPGRQTTSPNVLWPTPGHLSPLVVHRQLSHLYAEPQKSPWCEARSLEHTLPVNRETLKRKVSGNRCASPVTGPGSKRDAHFCAVCSDYASGYHYGVWSCEGCKAFFKRSIQGHNDYICPATNQCTIDKNRRKSCQACRLRKCYEVGMVKCGSRRERCGYRLVRRQRSADEQLHCAGKAKRSGGHAPRVRELLLDALSPEQLVLTLLEAEPPHVLISRPSAPFTEASMMMSLTKLADKELVHMISWAKKIPGFVELSLFDQVRLLESCWMEVLMMGLMWRSIDHPGKLIFAPDLVLDRDEGKCVEGILEIFDMLLATTSRFRELKLQHKEYLCVKAMILLNSSMYPLVTATQDADSSRKLAHLLNAVTDALVWVIAKSGISSQQQSMRLANLLMLLSHVRHASNKGMEHLLNMKCKNVVPVYDLLLEMLNAHVLRGCKSSITGSECSPAEDSKSKEGSQNPQSQ	no inhibitory activity			
hERβL: full-length human estrogen receptor-β of 530 amino acid residues, SEQ ID NO:2 (protein, Human) MDIKNSPSSLNSPSSYNCSQSILPLEHGSIYIPSSYVDSHHEYPAMTFYSPAVMNYSIPSNVTNLEGGPGRQTTSPNVLWPTPGHLSPLVVHRQLSHLYAEPQKSPWCEARSLEHTLPVNRETLKRKVSGNRCASPVTGPGSKRDAHFCAVCSDYASGYHYGVWSCEGCKAFFKRSIQGHNDYICPATNQCTIDKNRRKSCQACRLRKCYEVGMVKCGSRRERCGYRLVRRQRSADEQLHCAGKAKRSGGHAPRVRELLLDALSPEQLVLTLLEAEPPHVLISRPSAPFTEASMMMSLTKLADKELVHMISWAKKIPGFVELSLFDQVRLLESCWMEVLMMGLMWRSIDHPGKLIFAPDLVLDRDEGKCVEGILEIFDMLLATTSRFRELKLQHKEYLCVKAMILLNSSMYPLVTATQDADSSRKLAHLLNAVTDALVWVIAKSGISSQQQSMRLANLLMLLSHVRHASNKGMEHLLNMKCKNVVPVYDLLLEMLNAHVLRGCKSSITGSECSPAEDSKSKEGSQNPQSQ	capable of attenuating	about 3 fold	2	2–3 times

Source: patent publication US7157568B1, “Human estrogen receptor-β” (American Home Products Corporation, priority 1997, dated 2007)
